In paper PMC6098157:

Biological target: TIR1 (transport inhibitor response 1), codon-optimized rice TIR1 (rice)

GFP-PCNA left at 22 hpf in zebrafish retinal neuroepithelium cells expressing TIR1 and mAID-nanobody, with 0.5 mM IAA as the bridging auxin (% of original GFP-PCNA levels): < 20
GFP-PCNA left at 22 hpf in zebrafish retinal neuroepithelium cells expressing TIR1 and mAID-nanobody, with 0.5 mM NAA as the bridging auxin (% of original GFP-PCNA levels): 12
B1: mAID^K→R-vhhGFP4^K→R (lysine-less mAID-nanobody) (VHH)
chain: ACPRDPARPPARAQVVGWPPVRSYRRNVMVSCQRSSGGPEAAAFVRVSMDGAPYLRRIDLRMYRMDQVQLVESGGALVQPGGSLRLSCAASGFPVNRYSMRWYRQAPGREREWVAGMSSAGDRSSYEDSVRGRFTISRDDARNTVYLQMNSLRPEDTAVYYCNVNVGFEYWGQGTQVTVSS
